Laboratory results published in US12404336 (dated 2025).

T1: His tagged human TIGIT protein (human, UniProt Q495A1 22-141)
T1 chain: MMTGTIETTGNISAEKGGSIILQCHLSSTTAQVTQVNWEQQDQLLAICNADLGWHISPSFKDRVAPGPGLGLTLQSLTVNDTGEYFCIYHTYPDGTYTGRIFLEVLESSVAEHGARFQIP

T2: human TIGIT on transfected CHOK1 cells (human, UniProt Q495A1 22-244)
T2 chain: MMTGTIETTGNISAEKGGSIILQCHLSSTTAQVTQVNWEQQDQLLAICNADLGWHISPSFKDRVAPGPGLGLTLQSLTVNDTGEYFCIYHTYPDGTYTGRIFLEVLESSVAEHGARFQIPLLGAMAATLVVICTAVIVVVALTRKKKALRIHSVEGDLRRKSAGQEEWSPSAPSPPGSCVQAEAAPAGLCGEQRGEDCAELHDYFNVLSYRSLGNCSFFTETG

T3: human LAG-3 fused to mouse IgG2a (huLAG-3-mIgG2a) (human, UniProt P18627 23-450)
T3 chain: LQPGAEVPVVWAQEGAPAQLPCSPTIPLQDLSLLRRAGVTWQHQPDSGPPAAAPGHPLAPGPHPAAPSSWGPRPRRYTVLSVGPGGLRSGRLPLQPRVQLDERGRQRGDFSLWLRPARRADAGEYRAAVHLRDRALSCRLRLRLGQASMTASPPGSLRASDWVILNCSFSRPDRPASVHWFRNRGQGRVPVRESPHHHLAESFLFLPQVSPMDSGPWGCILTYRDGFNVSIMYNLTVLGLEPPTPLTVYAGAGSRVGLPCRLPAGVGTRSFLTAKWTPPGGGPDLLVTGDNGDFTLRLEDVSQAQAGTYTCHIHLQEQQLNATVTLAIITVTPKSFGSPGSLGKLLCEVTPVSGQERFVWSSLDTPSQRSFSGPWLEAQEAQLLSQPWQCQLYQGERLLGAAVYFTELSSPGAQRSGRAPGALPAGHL

T4: His tagged human LAG-3 (human, UniProt P18627 23-450)
T4 chain: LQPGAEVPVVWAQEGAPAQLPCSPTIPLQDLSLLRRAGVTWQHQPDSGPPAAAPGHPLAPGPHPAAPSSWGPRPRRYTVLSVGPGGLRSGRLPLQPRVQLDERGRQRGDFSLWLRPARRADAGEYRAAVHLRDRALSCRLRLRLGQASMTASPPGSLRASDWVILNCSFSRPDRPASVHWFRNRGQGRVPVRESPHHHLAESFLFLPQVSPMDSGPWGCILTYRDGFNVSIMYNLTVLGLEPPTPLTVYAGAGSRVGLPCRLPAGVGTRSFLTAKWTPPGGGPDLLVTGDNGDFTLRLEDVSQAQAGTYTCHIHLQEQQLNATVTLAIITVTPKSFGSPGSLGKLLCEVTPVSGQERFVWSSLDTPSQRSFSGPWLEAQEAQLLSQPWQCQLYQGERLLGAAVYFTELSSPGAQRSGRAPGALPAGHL

T5: human LAG-3 on CHO-K1 cells (human, UniProt P18627 23-525)
T5 chain: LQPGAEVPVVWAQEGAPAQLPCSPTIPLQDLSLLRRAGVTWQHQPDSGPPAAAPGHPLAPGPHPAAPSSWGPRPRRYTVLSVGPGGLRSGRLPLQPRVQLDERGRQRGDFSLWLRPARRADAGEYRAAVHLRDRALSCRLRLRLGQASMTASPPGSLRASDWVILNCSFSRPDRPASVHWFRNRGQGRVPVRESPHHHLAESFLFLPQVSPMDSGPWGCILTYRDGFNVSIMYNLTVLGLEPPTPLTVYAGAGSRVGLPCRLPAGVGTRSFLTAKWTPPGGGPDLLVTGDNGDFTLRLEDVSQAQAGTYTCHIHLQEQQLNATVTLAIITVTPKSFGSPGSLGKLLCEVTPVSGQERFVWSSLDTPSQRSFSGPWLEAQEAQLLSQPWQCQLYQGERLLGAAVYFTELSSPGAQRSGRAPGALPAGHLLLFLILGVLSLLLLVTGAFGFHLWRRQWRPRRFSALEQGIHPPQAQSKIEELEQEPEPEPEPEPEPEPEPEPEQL


What was measured:
[1] = biological target: His tagged human PD-1 protein (human, UniProt Q15116 25-167); assay: BLI
[2] = biological target: T1, His tagged human TIGIT protein; assay: BLI
[3] = biological target: T2, human TIGIT on transfected CHOK1 cells; assay: cell-based blocking of TIGIT/PVR
[4] = biological target: T3, human LAG-3 fused to mouse IgG2a …; assay: cell-based blocking of LAG-3-muFc binding to MHC on Raji cells
His tagged human LAG-3 = biological target: T4, His tagged human LAG-3; assay: SPR
[5] = biological target: T3, human LAG-3 fused to mouse IgG2a …; assay: SPR
[6] = biological target: T5, human LAG-3 on CHO-K1 cells; assay: flow cytometry binding
[7] = biological target: T3, human LAG-3 fused to mouse IgG2a …; assay: cell-based blocking of LAG-3/MHC II
[8] = biological target: T1, His tagged human TIGIT protein; assay: sandwich ELISA; simultaneous binding of LAG-3-muFc and His-tagged TIGIT

Sequence of His tagged human PD-1 protein (Q15116 25-167): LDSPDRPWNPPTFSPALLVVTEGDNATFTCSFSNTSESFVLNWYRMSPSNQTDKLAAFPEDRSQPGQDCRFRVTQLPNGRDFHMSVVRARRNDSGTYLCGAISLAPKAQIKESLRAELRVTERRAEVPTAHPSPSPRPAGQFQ

| Kd [1] | IC50 [3] | IC50 [4] | IC50 [7] | EC50 [8] | Binder | further results |
| --- | --- | --- | --- | --- | --- | --- |
| 2.9 nM | – | – | – | – | Bi-TPM-94A (antibody) chain 1: not shown chain 2: DIQMTQSPSFLSASVGDRVTITCKASQNVGTNVAWYQQKPGKAPKALIYSASYRYSGVPSRFSGSGSGTEFTLTISSLQPEDFATYYCQQYYSYPYTFGQGTKLEIKRTVAAPSVFIFPPSDEQLKSGTASVVCLLNNFYPREAKVQWKVDNALQSGNSQESVTEQDSKDSTYSLSSTLTLSKADYEKHKVYACEVTHQGLSSPVTKSFNRGEC | – |
| 2.7 nM | 0.13 nM | – | – | – | Bi-TPM-94B (antibody) chain 1: not shown chain 2: DIQMTQSPSFLSASVGDRVTITCKASQNVGTNVAWYQQKPGKAPKALIYSASYRYSGVPSRFSGSGSGTEFTLTISSLQPEDFATYYCQQYYSYPYTFGQGTKLEIKRTVAAPSVFIFPPSDEQLKSGTASVVCLLNNFYPREAKVQWKVDNALQSGNSQESVTEQDSKDSTYSLSSTLTLSKADYEKHKVYACEVTHQGLSSPVTKSFNRGEC | Kd [2]: 1.7 nM |
| – | – | 3.74 nM | – | – | chimeric 2L2A antibody (antibody, V domains shown) VH: EVQLQQSGPVLVKPGASVKMSCKASGYTLTDYYMNWMKQSHGKSLEWIGVINPYNGDTSCNQKFKGKATLTADKSSSTAYMELNSLTSDDSAVYYCVRDDGYYVHYFDYWGQGTTLTVSS VL: DIQMTQSPSSLSASLGERVTLTCRASQDISSRLTWLQQEPDGTIKRLIYATSSLDSGVPKRFNGSRSGSDYSLTISSLESEDFVDYYCLQYASSPLTFGAGTKLELKR | – |
| – | – | 1.97 nM | – | – | 2L2A.1 (antibody, V domains shown) VH: QVQLVQSGAEVKKPGASVKVSCKASGYTLTDYYMNWMRQAPGQGLEWMGVINPYNGDTSYNQKFKGRVTMTRDTSTSTVYMELSSLRSEDTAVYYCVRDDGYYVHYFDYWGQGTLVTVSS VL: DIQMTQSPSSLSASVGDRVTITCRASQDISSRLTWLQQEPEKAPKRLIYATSSLDSGVPKRFSGSGSGTDFTLTISSLQPEDFATYYCLQYASSPLTFGGGTKVEIK | Kd (His tagged human LAG-3): 1.42 nM; Kd [5]: 0.001 nM; EC50 [6]: 1.48 nM |
| – | 0.24 nM | – | 0.7 nM | 0.0107 µg/mL | Bi-LT-1 (antibody) chain 1: not shown chain 2: DIQMTQSPSSLSASVGDRVTITCRASQDISSRLTWLQQKPEKAPKRLIYATSSLDSGVPSRFSGSGSGTDFTLTISSLQPEDFATYYCLQYASSPLTFGGGTKVEIKRTVAAPSVFIFPPSDEQLKSGTASVVCLLNNFYPREAKVQWKVDNALQSGNSQESVTEQDSKDSTYSLSSTLTLSKADYEKHKVYACEVTHQGLSSPVTKSFNRGEC | – |
| – | 0.22 nM | – | 0.9 nM | 0.0108 µg/mL | Bi-LT-3 (antibody) chain 1: not shown chain 2: DIQMTQSPSSLSASVGDRVTITCRASQDISSRLTWLQQKPEKAPKRLIYATSSLDSGVPSRFSGSGSGTDFTLTISSLQPEDFATYYCLQYASSPLTFGGGTKVEIKRTVAAPSVFIFPPSDEQLKSGTASVVCLLNNFYPREAKVQWKVDNALQSGNSQESVTEQDSKDSTYSLSSTLTLSKADYEKHKVYACEVTHQGLSSPVTKSFNRGEC | – |
